# Laboratory results from the nanobody polyreactivity screen of Harvey et al. (2022).
# Test: yeast display, Sf9 membrane polyspecificity reagent, FACS + sequencing; frameworks hold sequencing errors
# Outline: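 Polyreactivity labels are assigned by the sorting gate from which each nanobody was recovered. The gates were low and high (top ~1%), set on anti-HA fluorescence for expression and streptavidin fluorescence for reagent binding. Before sorting, galactose-induced (36–48 hours) yeast display cells were stained for 1 hour at 4 °C with 10% biotinylated, detergent-solubilized Sf9 membrane reagent.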
row,Sequence,polyreactivity (PSR sort gate)
1,QVQLVDSGGGLVQAGGSLRLSCAASGSIFPPYAMGWYRQAPGKERELVAAITRSGGSTYYADSVKGRFTISRDNAKNTVYLQMNSLKPEDTAVYYCAARYPGGYGYWGQGTQVTVSS,high polyreactivity
2,QVQLVESGGGLVQAGGSLRLSCAASGSTFAGYTLGWYRQAPGKERELVAAITSRGGRTYYADSVKGRFTISRDHAKNTVYLQMNSLKPEDTAVYYCAAVSRYYAALMYYWGQGTQVTVSS,high polyreactivity
3,QVQLVESGGGLVQAGGRLRLSCAASGSIFGEYAMGWYRQAPGKERELVADITTGGNTNYADSVKGRFTISRDNAKNTVYLQMNSLKPEDTAVYYCNAYGNTYGYWWFGYWGQGTQVTVSS,low polyreactivity
4,QVQLVESGGGLVQAGGSLRLSCAASGIIFYPYAMGWYRQAPGKERELVAAISIGGGSTYYADSVKGRFTISRDNAKNTVYLQMNSLKPEDTAVYYCAAGTPYGILGYYYWGQGTQVTVSS,low polyreactivity
5,QVQLVESGGGLVQAGGSLRLSCAASGSIFRLYAKGWYIQAPGKERELVAAISSGGSTYYADSVKGRFTISRDNAKNTVYLQMNSLKPEDTAVYYCNTAWTYWRYDYWGQGTQVTVSS,high polyreactivity
6,QVQLVESGGGFVQAGGSLRLSCAASGFIFGYYAMGWYRQAPGKERELVAAITRSGSRTYYADSVKGRFTISRDNAKNTVYLQMNSLKPEDTAVYYFAKRRYWYYRSRDWFVSGVYWGQGTQVTVSS,low polyreactivity
7,QVQLVESGGGLVQAGGSLRLSCAASGSIFYYNAMGWYRPAPGKERELVAAITWSGGTYYADSVKGRFTISRDNAKNTVYLQMNSLKPEDTAVYYCNGARLYKWSFTPKFEMDHWGQGTQVTVSS,low polyreactivity
8,QVQLVESGGGLVQAGGSLRLSCAASGRTFLQYAMGWYRQAPGKERELVAANTTSGGDTYYADSVKGRFTISRDNAKNTVYLQMNSMKPDDTAVYYCNAAFRVYIPHVPYFVDFDYWGQGTQVTLSS,low polyreactivity
9,QVQLVESGGGLVQAGGSLRLSCAASGFIFLSYGMGWYRPAPGKERELVASITSDGGSTYYADSVKGRFTISRDNAKNTVYLQMNSLKPEDTAVYYCAADSVSPWYYGWYYRYRGYGYWGQGTQVTVSS,low polyreactivity
10,QVQLVESGGGLVQAGGSLRLSCAASAFILYRNAMGWYRQAPGKERELVAAITWNGDRTHYADSVMGRFTISRDNAKNTVYLQMNSLKPEDNAVYYCAAYYVSVRGGRYRNKWYDHWGQGTQVTVSS,high polyreactivity
11,QVQLVESGGGLVQAGGSLRLSCAASGITYSGNAMRWYRQAPAKERELVAAISGRGGSTYYADSVKGRFTISRDNAKNTVYLLMNSLKPDDTAVYYCNADVYPYKLALPAGMGYWGQGTQVTVSS,high polyreactivity
12,QVQLVESGGGLVQAGGSLRLSCAASGRIFYAYAMGGYRQAPGKERELVASISGGGSTDYADSVKGRFTISRDNAMNTVYLQMNSLKPEDTAVYDCAAKRISYYSYNFDYWGEGTQVTVSS,high polyreactivity
13,QVQLVESGGGLVQAGGSLRLSCAASGYISDTNAMGWYRQAPGKEREFVAVISSSVGSTYYADSVKGRFTISRDNAKNTVYLQMNSLKPEDTAVYYCNAEFNTVFLYWSLDSVRGYDYWGQGTQVTVSS,high polyreactivity
14,QVQLVESGGGLVQAGGSLRLSCAASGRTLWLYTMGWYRQATGKERELVARSRSGGSTYYADSVKGRFTISRDNAKNTVYLQMNSLKPEDTAVYYCAAFPYWIHYEHYYWGQGTQVTVSS,high polyreactivity
15,QVQLVESGGRLVQAGGSLRLSCAASGFIFEDYAMGWYRQAPGKERELVAAITWRGGSTYYADSVKGRFTISRDHAKTTVYLQMNSLKPEDTAVYYCAAEDYWGWRDYWGQGTQVTVSS,high polyreactivity
16,QVQLVESGGGLVQAGGSLRLSCAASGSTFPSNAMGWYRQAPGKERELVAAISRSGGSTYYADSVKGRFTISRDNAKNTVYLQMNSLKPEDTAVYFCAVQVRPNSGGTRIHRGGYDYWGQGTQVTVSS,low polyreactivity
17,QVQLVESVGGLVQAGGSLRLSCAASGRIFFYYGRGWYRQAPGKERELVAAITKRSSSTYYADSVKGRFTISRDNAKNTVYLQMNSLKPEDTAVYYCNAYPYRYVRRMDYWGQGTQVTVSS,high polyreactivity
18,QVQLVESGGGLVQAGGSLRLSCAASGSTFLTYAMGWYRQAPGKERELVASISRSGSTNYADSVKGRFTISRDNAKNTVYLQLNSLKPEDTAVYYCAADHTRYSSSWYYKQYYYWGQGTQVTVSS,low polyreactivity
19,QVQLVESGGGFVQAGGSLRLSCAASGCTFIKYAMGWYTQAPGKEREFVAAITRSGTSTYYADSVKGRFTISRDNAKNTVYLQMNRLKPEDTAVYFCSARYVYNSDRVSERDYWGQGTQVTVSS,high polyreactivity
20,QVQLVESGGGLVQAGGSLRLSCAASGRTFYIYAMGWYRQAPGKERELVARITTGGRTNYADSVKGRFTISRDNAKNTVYLQMNSLKPEDTAVYYCATQYRGRQRKYDYWGQGTQVTVSS,high polyreactivity
21,QVQLVESGGGLVQAGGSLRLSSAASGRTFWRYGMGWYRQAPGKERELVAAITDSGDSTYYADSVKGRFTISRDNAKNTVYLQMNSLKPEDTAVYYCAASDVVFALNGYYPGEDDYWGQGTQVTVSS,low polyreactivity
22,QVQLVESGGGLVQAGGSLRLSCAASGRIFGPYTMGWYRQEPGKERELVAAITGRVVSTYYADSVKGRFTISRDNAKNTVYLQMNSLQPEDTAVYYCAARIYYYNTRGDYWAQGTQVTVSS,high polyreactivity

row,Sequence,polyreactivity (PSR sort gate)
1,QVQLVESGGGLVQAGGTLRLSCAASGSTFGYYAMGWYRQAPGKERELVAAISWRGGSTYYADSVKGRFTISRYNANNTVYLQMNSLKPEDTAVYYCAAPVGNYGSFDYWGQGTKVTVSS,low polyreactivity
2,QVQLVESGGGLVQAGGSLRLSCAASGRTFWTYTMGWYRQAPGKEREFVAAITFGDGSTSYADSVKGRFTISRDNAKNTVYFQMNSLKPEDTAVYYCAKRWRRRFVDVWSLYDYWGQGTQVTVSS,low polyreactivity
3,QVQLVDSGGGLVQAGGSLRLSCAASGRTFGVNAMGWYRQAPGKERELVAAISSGSSTYYADSVKGRFTISRDNAKNTVYLQMNSLKPEDTAVYYCAAKYWSYYQSRSLSYRYFYWGQGTQVTVSS,low polyreactivity
4,QVQLVESGGGLVQAGGSLRLSCAASGFIFWYNAMGWYRQAPGKERELVATISVASTYADSVKGRFTISRDNAKNTVYLQMNSLKPEDTAVYYCAADWAGWEGYRMDYWGQGTQVTVSS,low polyreactivity
5,QVQLVESGGGLVQAGGSLRLSCAASGSIFAYYAMGWYRQAPGKEREIVAAISKRGGRTYYADSVKGRFTISRDNAKNTVYLQMNSLKPEDTAVYYCATVGVRTNLNRYGYWGQGTQVTVSS,high polyreactivity
6,QVQLVESGGGLVQAGGSLRLSCAASGRTFYGYAMGWYRQAPGKERELVAGITSRVGSTYYADSVKGRFTISRDNAKNTVYLQMNSLKPEDTAVYYCAADRYAVRSYHYDYWGQGTQVTVSS,low polyreactivity
7,QVQLEESGGGLVQAGGSLRLSCAASGSIFRKYAMVSYRQAPGKERELVAAIRSSGGSTYYADSVKGRFTISRDNANNTVYLQMNSLKPEDTAVYYCAARYYRPSRYDYWGQGTQVTVSS,high polyreactivity
8,QVQLVESGGGLVQAGGSLRLSCAASGRTFYRYAMGWYRQAPGKEREFVAAISNGGSNTRYADSVKGRFTISRDNAKNTVYLQMNSLKPEDTAVYYCAADYKRNQEVDYWGQGTQVTVSS,high polyreactivity
9,QVQHVESGGGLVQAGGSLRLSCAASGRTTYTNARGWYRQAPGKERELVASISWRGGSSYYADSVKGRFTISRDNAKNTVYLQMNSLIPEDTAVYYCAASWPRWWRFGYWGQGTQVTVSS,low polyreactivity
10,QVQLVESGGGLVQAGGSLRLSCAASGFIFETYAMGWYRQEPGKERELVAAISRGASTYYADSVKGRFTISRDNAKNTVYLQMNSLKPEDTAVYYCAAKRLSWHRYGYWGQGTQVTVSS,low polyreactivity
11,QVQLVESGGGLVQAGVSLRISCAASVRTFSRYTMGWYRPAPGKERELVAANSGDGASTYYADSVKGRFTISRDNAKYSVYLQMYSLKPEDTAVYYCAARGTRYWDYRYYAYNYWGQGTQVTVSS,high polyreactivity
12,QVQLVESGGGLVQAGGSLRLSCAASGSTSRIYGMGWYRQAPGTDRELVAAITRSGNTYADSVKGRFTISRDNANNTDYLQMNSLKPDDTAVYYCATAWRFTYFGYEYWGQGTQVTVSS,high polyreactivity
13,QVQLVESCGGLVQAGGSLRLSCAASGSIFGWYAMGWYRQAPGKESELVAAISTSTGSTYYADSVKGRFTISRDNAKNTVYLQMNSLKPEDTAVYYCAVVVAGVFLWGVERYDYWGQGTQVTVSS,low polyreactivity
14,QVQLVESGGGLVQAGGSLRLSCAASGSIFDNAMGWYRQAPGKERELVADITNNGGSTYYADSVKGRFTISRDNAKNTVYLQMNSLKPEDTAVYYCAKRRNYWFSFDYWGQGTQVTVSS,low polyreactivity
15,QVQLVESGVGLVQAGGSLRLSCAASGSIFWQNTMGGYRPAPGKERELVATITSAGSTYYADSVKGRFTISRDNAKNTVSLQMNSLKPEDTAVYYGAKGHHPGHVFHPDYGYDYWGQGTQVTVSS,low polyreactivity
16,QVQLVESGGGLVQAGGSLRFSCAASGSTFYLYDMGWYRQAPGQERELVAVISWSGGSTSYADSVKGRFTISRDNAKNTIYLQMYSLKPEDTAVYYCTTDFYHWGQGTQVTVSS,low polyreactivity
17,QVQLVESGGGLVQAGGSLRLSCAASGLTFFGYPMGWYRQAPGKEREFVADITWSGGSTYYADSVKGRFTISRDNAKNTVYLQMNSLKPEDTAVYYCAADYHKAEFNYWGQGTQVTVSS,low polyreactivity
18,QVQLVESGGGLVQAGGSLRLSCAASGSIFQYYTMGWYRQAPGKERELVATISRRGGTTYYADSVKGRFTISRDNAKNTVYLQMNILKPEDTAVYYCNADSRTYRYYWSYGYWGQGTQVTVSS,high polyreactivity
19,QVQLVESGGGLVQAGGSLRLSCAASGNIFYYYAMGWYRQAPGKERELVADITSGGDTDYADSVKGRFTISRDNAKNTVYLQMNSLKPEDTAVYYCNAEYYFHVTYDYWGQGTQVTVSS,low polyreactivity
20,QVQLEESGGGLVQAGGSLRLSCAASGSIFVTNVMGWYRQAPGKERELVAVINSGGRTYYADSVKGRFTISRDNAKNTVYLQMNSLKPEDTAVYYCAKDSWSSYPSLYPEFDYWGQGTQVTVSS,low polyreactivity
21,QVQLVESGGGLVQAGGSLRLSCAASGSIFPYNAMGWYRQAPGKERELVAAISKRGGSTYYADSVKGRFTISRDNAKNTVYLQMNSLKPEDTAVYYCAARYPPYRSWYSYDYWGQGTQVTVSS,low polyreactivity
